Laboratory results as given in the supplement of paper PMC12042874.
± gives the uncertainty stated by the source.

Assay: amyloid nucleation score (Sup35N fusion, yeast selection) (log enrichment); library NNK3; higher = more nucleation; inactive = no reads after selection
Procedure, shortened: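 On medium lacking adenine and uracil, psi-negative yeast expressing peptides of 20 random codons fused to Sup35N were grown 7 days at 30°C after a 24-hour induction with 100 μM copper sulfate. Illumina sequencing of input and output plasmid inserts gave the reads, and sequences under 100 input reads were excluded. The nucleation score is the DiMSum log enrichment of output over input reads, centred on the mode score of non-aggregating sequences.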
SRTGVC gave an amyloid nucleation score of -0.227 ± 1.5.
For SRVLTYDT, the amyloid nucleation score was “inactive”.
For SRWATGWTTIISYMEPWFRA, the amyloid nucleation score was “inactive”.
In the case of SRYHLDFRYYSINKSLMSGV, the amyloid nucleation score is reported as “inactive”.
In the case of SSASYVHCDFYIFGGLAPSN, the amyloid nucleation score is reported as 2.8 ± 0.063.
For SSCTLVKAGLVNFLRARYSG, the amyloid nucleation score was “inactive”.
With SSDFTSWDVREILGRAVVLC the amyloid nucleation score was “inactive”.
With SSDILASFGCYSNFHLSHII the amyloid nucleation score was “inactive”.
With SSDRLYFINGRMRNRFARFC the amyloid nucleation score was “inactive”.
In the case of SSDSIKTWWKNTNVICVSGG, the amyloid nucleation score is reported as “inactive”.
In the case of SSDSVNLIRYLYVRPRFPIH, the amyloid nucleation score is reported as “inactive”.
With SSECSMALIL the amyloid nucleation score was “inactive”.
With SSFDSAIEA the amyloid nucleation score was “inactive”.
In the case of SSFGTQLYWNMSKCRFTRGT, the amyloid nucleation score is reported as 1.16 ± 0.16.
For SSFLFVKLLIMNRLVQKIYA, the amyloid nucleation score was “inactive”.
With SSGWNFPCSPSVMPDVVGVG the amyloid nucleation score was “inactive”.
With SSHLVWCYDANNHWADHK the amyloid nucleation score was “inactive”.
In the case of SSKHC, the amyloid nucleation score is reported as “inactive”.
With SSLITFAPIPSLYWDCFSRF the amyloid nucleation score was “inactive”.
With SSLKWYTHPAMCYAHTWSIT the amyloid nucleation score was “inactive”.
With SSMICVQFGM the amyloid nucleation score was “inactive”.
In the case of SSMLI, the amyloid nucleation score is reported as “inactive”.
With SSNDDFWIKGGQCEYIRFRL the amyloid nucleation score was “inactive”.
For SSPDCNYNECVPGACERRGF, the amyloid nucleation score was “inactive”.
With SSQVET the amyloid nucleation score was “inactive”.
With SSSKNACDPC the amyloid nucleation score was “inactive”.
For SSSNTRFVGAERCVGSWCGS, the amyloid nucleation score was “inactive”.
With SSSVTVYRFKGSTSSLGTNY the amyloid nucleation score was “inactive”.
For SSVMFVRIVLRIGGYHLAAR, the amyloid nucleation score was “inactive”.
With SSVTCLLSSLRCIPRGVVFM the amyloid nucleation score was “inactive”.
In the case of SSVVGMSGLG, the amyloid nucleation score is reported as “inactive”.
With SSVYCL the amyloid nucleation score was -0.781 ± 1.3.
In the case of SSWDGLKRL, the amyloid nucleation score is reported as “inactive”.
With SSWPICMPASQNLLLNIGLG the amyloid nucleation score was “inactive”.
For SSYYFFCDGLIFELLSQDNS, the amyloid nucleation score was “inactive”.
In the case of STHGWGGWLSVYIGNP, the amyloid nucleation score is reported as “inactive”.
With STIAGPFLKFARSGTCPPVP the amyloid nucleation score was -0.776 ± 1.8.
For STLQRDIICKCIHAKVTVWV, the amyloid nucleation score was “inactive”.
In the case of STRILRLHITSMLDFRTTGA, the amyloid nucleation score is reported as “inactive”.
With STSSLASNYRDFSIR the amyloid nucleation score was “inactive”.
For STTIGF, the amyloid nucleation score was “inactive”.
In the case of STTMAFAAIVFEIYSVTSWF, the amyloid nucleation score is reported as “inactive”.
For STWRASIVPSFMVRGCWSIK, the amyloid nucleation score was “inactive”.
In the case of STWTWMPHKERHITLSKEFW, the amyloid nucleation score is reported as “inactive”.
In the case of STYAPWSMHHFLDLYMSNRS, the amyloid nucleation score is reported as “inactive”.
In the case of SVESACFTSSWVNHFFTFSN, the amyloid nucleation score is reported as “inactive”.
SVESQGLWGCCILSKR showed an amyloid nucleation score of 2.7 ± 0.06.
With SVFRSMSTSILVFSPVHYCE the amyloid nucleation score was “inactive”.
SVGGEWRS gave an amyloid nucleation score of 1.34 ± 0.14.
In the case of SVGVWKYFDLWAAGFLSSSG, the amyloid nucleation score is reported as “inactive”.
With SVIASRSLIYD the amyloid nucleation score was “inactive”.
For SVLFLTRIEEVGVRYMFKDC, the amyloid nucleation score was “inactive”.
With SVLLHLNRNVMWTMPSRGAF the amyloid nucleation score was “inactive”.
For SVMSLDVVMVVRYFY, the amyloid nucleation score was 0.999 ± 0.12.
For SVNFSYASAIPHAQMIQVRV, the amyloid nucleation score was “inactive”.
SVNLFVLMYLFII gave an amyloid nucleation score of 1.9 ± 0.061.
With SVQFFPDCCQGELTTNTVRS the amyloid nucleation score was “inactive”.
In the case of SVRTSAYYKFQRTERVSMCM, the amyloid nucleation score is reported as “inactive”.
With SVSHAE the amyloid nucleation score was “inactive”.
Substance SVTLRLVFRCP has an amyloid nucleation score of 1.05 ± 0.15.
With SVYDNYSLGNRYWERTFWLS the amyloid nucleation score was “inactive”.
For SVYGIYGSNYMNTFVVVLVG, the amyloid nucleation score was “inactive”.
In the case of SVYYTPCAFFRLIEGNLEGL, the amyloid nucleation score is reported as “inactive”.
With SWCWYMCSGLNIEIAKGLTR the amyloid nucleation score was “inactive”.
For SWDFAYLYELIYFRFMFQGC, the amyloid nucleation score was “inactive”.
In the case of SWFPP, the amyloid nucleation score is reported as “inactive”.
For SWFVHKFSIRYNLFDFSYIF, the amyloid nucleation score was “inactive”.
For SWKARDYRGSVLGSIIRDFN, the amyloid nucleation score was “inactive”.
In the case of SWQNWGRGGCSGLFVSRWVT, the amyloid nucleation score is reported as “inactive”.
With SWRDILVKRHS the amyloid nucleation score was “inactive”.
For SWRRWSPCLIEVWHMFSLVT, the amyloid nucleation score was “inactive”.
For SWVHGERLMHDCQTLLLYSW, the amyloid nucleation score was “inactive”.
For SWVNDRQNFPASLLYRDYLL, the amyloid nucleation score was “inactive”.
With SWYAKGFI the amyloid nucleation score was “inactive”.
For SWYGQLLCVTVVRYHCAPCG, the amyloid nucleation score was “inactive”.
Work on SYCDSNRGVDLV yielded an amyloid nucleation score of -0.611 ± 0.75.
For SYDGWCVTYFDV, the amyloid nucleation score was “inactive”.
In the case of SYDMTLHG, the amyloid nucleation score is reported as 0.436 ± 0.18.
In the case of SYFGDYLKIYFFYTQHNLSC, the amyloid nucleation score is reported as “inactive”.
In the case of SYFGRLIQSLTRQWTTVARS, the amyloid nucleation score is reported as “inactive”.
Work on SYFTMTDSSFSVAFANLLVY yielded an amyloid nucleation score of 0.289 ± 0.78.
With SYFWILRAWS the amyloid nucleation score was “inactive”.
With SYGALLNGYGGKSSAPIRWS the amyloid nucleation score was “inactive”.
Substance SYGDPCQAKGQIRIVYGWHW has an amyloid nucleation score of 0.308 ± 0.25.
For SYGPRPYTHHSPHAAGMTLE, the amyloid nucleation score was “inactive”.
For SYHYHATILSWTYYVTVYFL, the amyloid nucleation score was “inactive”.
In the case of SYLPEFRCVVRFKFFQDKLL, the amyloid nucleation score is reported as “inactive”.
With SYLRQDDVEMAVIWTGHMSV the amyloid nucleation score was “inactive”.
With SYMQAWVTNCMSVFSVVMKQ the amyloid nucleation score was “inactive”.
In the case of SYMVSLRIVLFFDYR, the amyloid nucleation score is reported as “inactive”.
In the case of SYNFRDCYQCLRDKVDKICA, the amyloid nucleation score is reported as “inactive”.
For SYNFVNQYVWKEDRNTKVAI, the amyloid nucleation score was “inactive”.
With SYPGQLRSPVSV the amyloid nucleation score was “inactive”.
In the case of SYRHCNWDAKKVAIGTVVWD, the amyloid nucleation score is reported as “inactive”.
In the case of SYSISDDLVTNHVPQNST, the amyloid nucleation score is reported as “inactive”.
For SYSSGSSNNKS, the amyloid nucleation score was “inactive”.
In the case of SYTIVERAIRWYPPT, the amyloid nucleation score is reported as 0.966 ± 0.11.
For SYTKDVV, the amyloid nucleation score was “inactive”.
With SYVICGLYIFGCIFRSFTLP the amyloid nucleation score was “inactive”.
In the case of SYWLCEVMTLYFFNCFYVLG, the amyloid nucleation score is reported as “inactive”.
For TASCEYFELQPIKNLH, the amyloid nucleation score was “inactive”.
For TAVLH, the amyloid nucleation score was “inactive”.
In the case of TCAVKMVRSWCNIPINSFQA, the amyloid nucleation score is reported as “inactive”.
For TCCYRYYLLILAVSGVFIDT, the amyloid nucleation score was “inactive”.
For TCFLRRFYWRYSGFYATAHY, the amyloid nucleation score was “inactive”.
In the case of TCFSYLIFSCGFHSY, the amyloid nucleation score is reported as 0.404 ± 0.64.
TCHLILRVFGSYNMHGS gave an amyloid nucleation score of -0.024 ± 0.96.
With TCLNGLVESRLAGFYHLRGP the amyloid nucleation score was “inactive”.
For TCLVGHDKKIDFIV, the amyloid nucleation score was “inactive”.
With TCLVSNYVAYIWGNEFFAAS the amyloid nucleation score was 2.19 ± 0.053.
With TCMYLRDHR the amyloid nucleation score was -0.337 ± 0.98.
In the case of TCQILRYIRSLLRMLIWCYY, the amyloid nucleation score is reported as -0.418 ± 0.8.
For TCSISIRAGLVLNPCWSDYA, the amyloid nucleation score was “inactive”.
For TCSSACFVENRDTNHNGHGG, the amyloid nucleation score was “inactive”.
With TCSSINTLLKYMFLSISLFR the amyloid nucleation score was “inactive”.
In the case of TCVLLCDVFFHGLVLDLKLV, the amyloid nucleation score is reported as “inactive”.
With TCVMPGVSQLRFGYWVWICR the amyloid nucleation score was “inactive”.
With TCVNLIMKIECFLYYGFLCP the amyloid nucleation score was “inactive”.
With TCWLVFSSFPINKLVLRNKT the amyloid nucleation score was “inactive”.
With TDMIQYKHRLYTIILSNYAR the amyloid nucleation score was “inactive”.
With TDRLGCSFELCAPTCKCAGV the amyloid nucleation score was “inactive”.
For TDVISRMMRGGQVLCMCKQC, the amyloid nucleation score was “inactive”.
In the case of TEDGPYTIWH, the amyloid nucleation score is reported as “inactive”.
For TEGAYRSW, the amyloid nucleation score was “inactive”.
In the case of TEPRMLGMCPAVVERMRVEG, the amyloid nucleation score is reported as “inactive”.
For TEYVMSQNHLKQW, the amyloid nucleation score was “inactive”.
In the case of TFAFYLTILMSMFDRYFTWP, the amyloid nucleation score is reported as “inactive”.
With TFCGFKP the amyloid nucleation score was “inactive”.
In the case of TFDFPHIRRLEFKFAI, the amyloid nucleation score is reported as “inactive”.
In the case of TFKPDQYRFVHEYSTMRVLM, the amyloid nucleation score is reported as “inactive”.
In the case of TFLYTFWVLMACSELV, the amyloid nucleation score is reported as “inactive”.
TFRICADMCCTGVR gave an amyloid nucleation score of 1.45 ± 0.11.
With TFRVNMCNPLMLGYVLFWLD the amyloid nucleation score was “inactive”.
With TFYDNLSDRLFSWS the amyloid nucleation score was “inactive”.
With TGFLGWDACGALRIFLTVRW the amyloid nucleation score was “inactive”.
For TGHSQSLVVLTCWCVLFHAR, the amyloid nucleation score was “inactive”.
In the case of TGKYRAVVLAC, the amyloid nucleation score is reported as “inactive”.
In the case of TGMNNFMKCLGYMSAHVRLI, the amyloid nucleation score is reported as “inactive”.
For TGPMGI, the amyloid nucleation score was “inactive”.
For TGQLSSQPIIQISREPIAFT, the amyloid nucleation score was “inactive”.
Work on TGSLWRNHCLVVPQVRYGRK yielded an amyloid nucleation score of -0.017 ± 0.5.
For TGSVFVKDGTLWPTCVDLIG, the amyloid nucleation score was “inactive”.
With TGTFDRWDPVTAGLPTGLGE the amyloid nucleation score was “inactive”.
In the case of TGVKQCSTFTVFIFAGPVEI, the amyloid nucleation score is reported as 1.74 ± 0.1.
In the case of TGYYWFLFWNMWDWHVCGSS, the amyloid nucleation score is reported as “inactive”.
With THNVSKKWLVGVMCINSGRH the amyloid nucleation score was 1.59 ± 0.099.
In the case of TIATLRF, the amyloid nucleation score is reported as “inactive”.
In the case of TICCSDLVVEDHG, the amyloid nucleation score is reported as “inactive”.
In the case of TICPTFPVGGMNISNGSYTM, the amyloid nucleation score is reported as “inactive”.
For TIEIGSLYTITM, the amyloid nucleation score was -0.251 ± 0.45.
In the case of TIFEAA, the amyloid nucleation score is reported as “inactive”.
TIFFMYWLSPGFSPPI gave an amyloid nucleation score of 0.148 ± 0.39.
For TIFKRSPACYYNGIHLWVTF, the amyloid nucleation score was “inactive”.
For TIGDACFVGKEAWAFANWEY, the amyloid nucleation score was “inactive”.
For TIIFRSYVELVDELWLDAAL, the amyloid nucleation score was “inactive”.
With TILGDFVFVFILKVCFTYHR the amyloid nucleation score was -0.806 ± 1.3.
In the case of TISFGMMHLAIDWVIVN, the amyloid nucleation score is reported as “inactive”.
Substance TITLFSSWGSV has an amyloid nucleation score of 0.612 ± 0.22.
